This is an account of results in publication doi:10.1101/2021.10.20.465124v1.

Substrate in the data set: COc1cc2ccc(=O)oc2cc1O[C@@H]1O[C@H](CO)[C@@H](O)[C@H](O)[C@H]1O
In words: glucose release, D-Glucose HK assay, substrate inhibition fit. In kind it is biochemical, Streptomyces scabiei. As to conditions: HEPES 50 mM pH 7.5, 40 °C, 4 min, substrate inhibition model.

B1: His6-BglC (Streptomyces scabiei 87.22) (protein)
chain: MPEPVNPATPVTFPPAFLWGAATSAYQIEGAVREDGRTPSIWDTFSHTPGKTAGGENGDIAVDHYHRYRDDVAMMADLGLNAYRFSVSWSRVQPTGRGPAVQKGLDFYRRLVDELLAKGIKPAVTLYHWDLPQELEDAGGWPERDIVHRFAEYARIMGEALGDRVEQWITLNEPWCTAFLGYGSGVHAPGRTDPVASLRAAHHLNVAHGLGVSALRSAMPARNSIAVSLNSSVVRPITSSPEDRAAARKIDDLANGVFHGPMLHGAYPETLFAATSSLTDWSFVRDGDVATAHQPLDALGLNYYTPALVGAADAGLEGPRADGHGASEHSPWPAADDVLFHQTPGERTEMGWTIDPTGLHELIMRYAREAPGLPMYVTENGAAYDDKMDADGRVHDPERIAYLHGHLRAVRRAIAEGADVRGYYLWSLMDNFEWAYGYGKRFGAVYVDYATLTRTPKSSAHWYGQAAKTGALPPLAPAPA
As for B1, the Km – broadly, the concentration of substrate that gives half-maximal velocity – came out at 300 µM; the kcat (usually the number of substrate molecules converted per active site and unit of time at saturation) turned out to be 9.4 s⁻¹.
